Source: patent US20260365696A1, “INHIBITORS OF PTP1B / NCK1 INTERACTION AND METHODS OF MAKING AND USING SAME” (Radella Pharmaceuticals LLC, priority 2023, published 2026)
Read-outs that look alike come from different tables or passages of the source. Each block holds one molecule with its values, some of them ahead of it. No end group written: not given here.

Experiments:
db/db mice = test: db/db genetic mouse model of diabetes and obesity; format: in vivo
From the text: Animals: All animals were housed and tested following European (Directive on the Protection of Animals used for Scientific Purposes, 2010/63/EU) and UK Home Office regulations. Experiments were approved by the University Ethics Board and carried out in accordance with the Animal (Scientific Procedures) Act 1986 and following ARRIVE guidelines. Db/db male mice (~4 weeks old) were purchased from Jackson, USA. All mice received standard mouse chow diet and had ad libitum access to food and water and were kept in a 12 h light/dark cycle.
Treatments: Mice were assigned and counterbalanced according to their body weights in to the following groups: control PBS (n=10); MD18 at 15 mg/kg (n=7), 30 mg/kg (n=8), or 45 mg/kg (n=7); or MD20 at 15 mg/kg (n=9), 30 mg/kg (n=10) or 45 mg/kg (n=7). MD18 and MD20 were administered once daily via subcutaneous (SC) injection for 41 days, whereas control mice received a daily SC injection of vehicle (PBS). MD18 and MD20 were kept in −20 °C and dissolved in sterile phosphate buffered saline (PBS).
Body weights and body mass composition: Body weights were recorded twice weekly during the study, and fat mass and lean mass composition was analysed using an EchoMRI scanner (EchoMedical Systems, Houston, TX, U.S.A.).
Metabolic measurements: All animals were five-hour fasted before obtaining basal glucose measurements and GTT, ITT, and corresponding treatments were administered 1 hour before glucose measurements. Tail blood glucose was measured using AlphaTRAK 2 glucose strips and glucometer (Abbot, UK), or blood was collected and glucose assay (AB65333, Abcam) was performed where readings were too high to be recorded via glucometer. Human Actrapid Insulin (NovaNordisk) at 1 IU/kg dose was administered during ITT.
Serum and liver assays: Trunk-derived blood was collected from 5 h-fasted mice into serum separator microtubes and kept at −80 °C. Serum was used for insulin (#EZRMI-13K, Merck) and leptin (#90030, Crystal Chem) analyses.
Statistical analyses: Data were reported as means±SEM and analysed using one- or two-way ANOVA with Bonferroni post hoc tests, as appropriate. GraphPad Prism (V8, GraphPad Software, Inc., San Diego, California, USA) was used for statistical analyses. P-values <0.05 were considered significant.

SH3-2 domain of NCK1 = molecular target: T1, SH3-2 domain of NCK1 (Homo sapiens, UniProt P16333); test: Isothermal titration calorimetry (ITC) binding to NCK1 SH3-2 domain
T1 construct: To amplify the NCK1 SH3-2 domain, the primers; 10xHis tag with TEV site (vector pSF-OXB20-NH2-10HIS) (N, cleaved yes); made in house; host or cells: E. coli C43(DE3)
How it was run: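 Measured at 25 °C, pH 8.0 (10 mM sodium buffer, sodium chloride), by calorimetric titration of 3-7.5 mM peptide into 0.125-0.3 mM recombinant NCK1 SH3-2 domain with His tag removed, using 20 injections. Affinities are means of three experiments, fitted with stoichiometry 0.8-1.2.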

NCK1 SH3-2 domain [1] = molecular target: T2, NCK1 SH3-2 domain (human); test: ITC
T2 chain: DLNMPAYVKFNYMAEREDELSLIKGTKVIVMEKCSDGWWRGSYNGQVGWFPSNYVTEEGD

NCK1 SH3-2 domain [2] = molecular target: T2, NCK1 SH3-2 domain; test: ITC
NCK1 SH3-2 domain [3] = molecular target: T2, NCK1 SH3-2 domain; test: ITC
NCK1 SH3-2 domain [4] = molecular target: T2, NCK1 SH3-2 domain; test: ITC
NCK1 SH3-2 domain [5] = molecular target: T2, NCK1 SH3-2 domain; test: ITC
NCK1 SH3-2 domain [6] = molecular target: T2, NCK1 SH3-2 domain; test: ITC
NCK1 SH3-2 domain [7] = molecular target: T2, NCK1 SH3-2 domain; test: ITC

Kd (SH3-2 domain of NCK1; Peptide truncation analysis, ITC, 25 °C, pH 8.0): ≤ 300 µM | Kd (SH3-2 domain of NCK1; ability to bind SH3-2 domain of NCK1, stated in text): < 193 µM
Molecule: Ac-PPRPPKR-NH2 [MD18, Ac-PPRPPKR-NH2]
leptin levels (db/db mice; 15 mg/kg SC daily, about 6 weeks, vs control): A trend for decreased leptin levels | glucose clearance during GTT (db/db mice; 15 mg/kg SC daily, week 4, vs control): better glucose clearance at 15-minutes post-glucose injection | fat mass gain (db/db mice; 15 mg/kg and 30 mg/kg SC daily): inhibited fat mass gain | body weight gain (db/db mice; 15 mg/kg and 30 mg/kg SC daily, vs control): significantly inhibited body weight gain | fasted insulin levels (db/db mice; 30 mg/kg SC daily, about 6 weeks, vs control): A trend for lower fasted insulin levels | basal glucose levels (db/db mice; 5-hour-fasted, SC daily, vs vehicle): No significant differences | efficacy with respect to inhibiting body weight, inhibiting fat mass gain, and improving glucose clearance during GTT (db/db mice; SC daily, compared to MD20): better efficacy as compared to MD20 treatment | insulin tolerance test (ITT) (db/db mice; SC daily, week 6, 1 IU/kg insulin, vs control): did not detect any significant differences

Kd (NCK1 SH3-2 domain [1]): < 300 µM
B1: MH064 (peptide)
chain: Ac-PPRPPKRIL-NH2

Kd (NCK1 SH3-2 domain [2]): > 600 µM
B2: MH067 (peptide)
chain: Ac-PPRFPKR-NH2

Kd (NCK1 SH3-2 domain [2]): < 300 µM
B3: MH125 (peptide)
chain: Ac-PPRVPKR-NH2

binding result (NCK1 SH3-2 domain [3]): no binding
B4: MH132 (peptide)
chain: Ac-PPRHPKR-NH2

binding result (NCK1 SH3-2 domain [3]): no binding
B5: MH108 (peptide)
chain: Ac-PPRSPKR-NH2

binding result (NCK1 SH3-2 domain [3]): no binding
B6: MH130 (peptide)
chain: Ac-PPREPKR-NH2

Kd (NCK1 SH3-2 domain [1]): < 300 µM
B7: MH089 (peptide)
chain: Ac-PPPEHIPPPPRPPKRILEPH-NH2

Kd (NCK1 SH3-2 domain [4]): < 300 µM
B8: MSJ019 (peptide)
chain: Ac-PPPEHIPAPPRPPKR-NH2

Kd (NCK1 SH3-2 domain [4]): > 1000 µM
B9: MH007 (peptide)
chain: Ac-PPPEHIPPPPRPPKA-NH2

binding result (NCK1 SH3-2 domain [3]): no binding
B10: MH127 (peptide)
chain: Ac-PPRNPKR-NH2

Kd (NCK1 SH3-2 domain [1]): < 300 µM
B11: MH065 (peptide)
chain: Ac-PPRPPKRILE-NH2

Kd (NCK1 SH3-2 domain [2]): < 600 µM
B12: MH115 (peptide)
chain: Ac-PPRTPKR-NH2

binding result (NCK1 SH3-2 domain [3]): no binding
B13: MH093 (peptide)
chain: Ac-PPRGPKR-NH2

Kd (NCK1 SH3-2 domain [2]): < 300 µM
B14: MH097 (peptide)
chain: Ac-PPRIPKR-NH2

Kd (NCK1 SH3-2 domain [2]): < 600 µM
B15: MH121 (peptide)
chain: Ac-PPRYPKR-NH2

Kd (NCK1 SH3-2 domain [5]): < 300 µM | Kd (NCK1 SH3-2 domain [1]): < 300 µM
B16: MH063 (peptide)
chain: Ac-PPRPPKRI-NH2

Kd (NCK1 SH3-2 domain [1]): < 300 µM
B17: MH137 (peptide)
chain: Ac-PPPEHIPPPPRPPKRILEPHNGKCREFFPN-NH2

Kd (NCK1 SH3-2 domain [1]): < 300 µM
B18: MH077 (peptide)
chain: Ac-PPPEHIPPPPRPPKRILE-NH2

Kd (NCK1 SH3-2 domain [6]): > 1000 µM
B19: MH039 (peptide)
chain: Ac-EHIPPP-NH2

binding result (NCK1 SH3-2 domain [3]): no binding
B20: MH129 (peptide)
chain: Ac-PPRCPKR-NH2

Kd (NCK1 SH3-2 domain [1]): < 300 µM
B21: MH090 (peptide)
chain: Ac-HEDLEPPPEHIPPPPRPPKR-NH2

Kd (NCK1 SH3-2 domain [6]): > 1000 µM
B22: MH036 (peptide)
chain: Ac-PPPRPP-NH2

binding result (NCK1 SH3-2 domain [3]): no binding
B23: MH111 (peptide)
chain: Ac-PPRMPKR-NH2

Kd (NCK1 SH3-2 domain [6]): > 1000 µM
B24: MH038 (peptide)
chain: Ac-IPPPPR-NH2

binding result (NCK1 SH3-2 domain [3]): no binding
B25: MH128 (peptide)
chain: Ac-PPRDPKR-NH2

Kd (NCK1 SH3-2 domain [7]): < 300 µM
B26: MH009 (peptide)
chain: Ac-PAPPKR-NH2

Kd (NCK1 SH3-2 domain [1]): < 300 µM
B27: MH135 (peptide)
chain: Ac-WKELSHEDLEPPPEHIPPPPRPPKR-NH2

Kd (NCK1 SH3-2 domain [2]): < 600 µM
B28: MH101 (peptide)
chain: Ac-PPRLPKR-NH2

Kd (NCK1 SH3-2 domain [7]): > 1000 µM
B29: MH011 (peptide)
chain: Ac-PRPAKR-NH2

Kd (NCK1 SH3-2 domain [2]): < 600 µM
B30: MH104 (peptide)
chain: Ac-PPRKPKR-NH2

Kd (NCK1 SH3-2 domain [2]): < 600 µM
B31: MH062 (peptide)
chain: Ac-PPRRPKR-NH2

Kd (NCK1 SH3-2 domain [4]): < 300 µM
B32: MH004 (peptide)
chain: Ac-PPPEHIPPPPRAPKR-NH2

Kd (NCK1 SH3-2 domain [6]): > 1000 µM
B33: MH041 (peptide)
chain: Ac-PPPRPPK-NH2

Kd (NCK1 SH3-2 domain [6]): > 1000 µM
B34: MH035 (peptide)
chain: Ac-PPRPPK-NH2

Kd (NCK1 SH3-2 domain [7]): > 1000 µM
B35: MH010 (peptide)
chain: Ac-PRAPKR-NH2

Kd (NCK1 SH3-2 domain [4]): > 1000 µM
B36: MH002 (peptide)
chain: Ac-PPPEHIPPPARPPKR-NH2

Kd (NCK1 SH3-2 domain [1]): < 300 µM
B37: MH134 (peptide)
chain: Ac-PPPEHIPPPPRPPKRILEPHNGKCR-NH2

Kd (NCK1 SH3-2 domain [1]): < 300 µM
B38: MH136 (peptide)
chain: SVQDQWKELSHEDLEPPPEHIPPPPRPPKR-NH2
modifications: not fully specified (N-terminus)

binding result (NCK1 SH3-2 domain [3]): no binding
B39: MH118 (peptide)
chain: Ac-PPRWPKR-NH2

Kd (NCK1 SH3-2 domain [4]): < 300 µM
B40: MH006 (peptide)
chain: Ac-PPPEHIPPPPRPPAR-NH2

Kd (NCK1 SH3-2 domain [6]): > 1000 µM
B41: MH040 (peptide)
chain: Ac-PPEHIP-NH2

Kd (NCK1 SH3-2 domain [7]): > 1000 µM
B42: MH008 (peptide)
chain: Ac-ARPPKR-NH2

Kd (NCK1 SH3-2 domain [6]): > 1000 µM
B43: MH037 (peptide)
chain: Ac-PPPPRP-NH2

binding result (NCK1 SH3-2 domain [3]): no binding
B44: MH131 (peptide)
chain: Ac-PPRQPKR-NH2

Kd (NCK1 SH3-2 domain [7]): > 1000 µM
B45: MH013 (peptide)
chain: Ac-PRPPKA-NH2
